Measurements taken from PMC12872464.
Where a chain is given by its changes, count along the chain named. Names may count otherwise.

B1: HA-tagged PPAP recombinant protein, isoform 2 (membrane protein), wild type (rPPAP-HA WT), P15309-2 N94A; N220A; N333A (protein)
chain: KELKFVTLVFRHGDRSPIDTFPTDPIKESSWPQGFGQLTQLGMEQHYELGEYIRKRYRKFLAESYKHEQVYIRSTDVDRTLMSAMTNLAALFPPEGVSIWNPILLWQPIPVHTVPLSEDQLLYLPFRNCPRFQELESETLKSEEFQKRLHPYKDFIATLGKLSGLHGQDLFGIWSKVYDPLYCESVHAFTLPSWATEDTMTKLRELSELSLLSLYGIHKQKEKSRLQGGVLVNEILNHMKRATQIPSYKKLIMYSAHDTTVSGLQMALDVYNGLLPPYASCHLTELYFEKGEYFVEMYYRAETQHEPYPLMLPGCSPSCPLERFAELVGPVIPQDWSTECMTTNSHQVLKVIFAVAFCLISAVLMVLLFIHIRRGLCWQRESYGNI
B2: HA-tagged PPAP recombinant protein, isoform 2 (membrane protein), wild type (rPPAP-HA WT), P15309-2 N220A (protein)
chain: B1 chain with A62N, A301N
B3: HA-tagged PPAP recombinant protein, isoform 2 (membrane protein), wild type (rPPAP-HA WT), P15309-2 N94A (protein)
chain: B1 chain with A188N, A301N
B4: HA-tagged PPAP recombinant protein, isoform 2 (membrane protein), wild type (rPPAP-HA WT), P15309-2 N333A (protein)
chain: B1 chain with A62N, A188N
B5: HA-tagged PPAP recombinant protein, isoform 2 (membrane protein), wild type (rPPAP-HA WT), P15309-2 N220A; N333A (protein)
chain: B1 chain with A62N
B6: HA-tagged PPAP recombinant protein, isoform 2 (membrane protein), wild type (rPPAP-HA WT), P15309-2 N94A; N333A (protein)
chain: MRAAPLLLARAASLSLGFLFLLFFWLDRSVLAKELKFVTLVFRHGDRSPIDTFPTDPIKESSWPQGFGQLTQLGMEQHYELGEYIRKRYRKFLAESYKHEQVYIRSTDVDRTLMSAMTNLAALFPPEGVSIWNPILLWQPIPVHTVPLSEDQLLYLPFRNCPRFQELESETLKSEEFQKRLHPYKDFIATLGKLSGLHGQDLFGIWSKVYDPLYCESVHNFTLPSWATEDTMTKLRELSELSLLSLYGIHKQKEKSRLQGGVLVNEILNHMKRATQIPSYKKLIMYSAHDTTVSGLQMALDVYNGLLPPYASCHLTELYFEKGEYFVEMYYRAETQHEPYPLMLPGCSPSCPLERFAELVGPVIPQDWSTECMTTNSHQGTEDSTD
B7: HA-tagged PPAP recombinant protein, isoform 2 (membrane protein), wild type (rPPAP-HA WT), P15309-2 N94A; N220A (protein)
chain: B6 chain with N220A, A333N

What follows are binders tested against recombinant lectin domain of FimH with FLAG tag (rFimHLD-FLAG), P08191 (assay: western blot quantification of rFimHLD-FLAG bound to rPPAP-HA). Settings: chain shown with the change; n = 3 biological replicates; parent: est. 1.0; read off a plot.
Sequence of recombinant lectin domain of FimH with FLAG tag (rFimHLD-FLAG), P08191 (P08191 22-156): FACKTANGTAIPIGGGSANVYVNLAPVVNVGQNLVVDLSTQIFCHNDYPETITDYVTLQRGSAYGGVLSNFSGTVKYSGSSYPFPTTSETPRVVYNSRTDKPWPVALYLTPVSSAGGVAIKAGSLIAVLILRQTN

Row | Binder | ratio to parent
1 | B1 | 0.36
2 | B2 | 0.68
3 | B3 | 0.78
4 | B4 | 0.6
5 | B5 | 0.25
6 | B6 | 0.5
7 | B7 | 0.53

Each binder was assayed against full-length FimH adhesin on live WT UPEC UTI89 bacteria, P08191 (assay: binding array (rPPAP bound to glass slide, incubated with live bacteria)). Settings: chain shown with the change, with D-mannose, n = 3 biological replicates, parent: est. 18, read off a plot.
Sequence of full-length FimH adhesin on live WT UPEC UTI89 bacteria, P08191 (P08191 22-300): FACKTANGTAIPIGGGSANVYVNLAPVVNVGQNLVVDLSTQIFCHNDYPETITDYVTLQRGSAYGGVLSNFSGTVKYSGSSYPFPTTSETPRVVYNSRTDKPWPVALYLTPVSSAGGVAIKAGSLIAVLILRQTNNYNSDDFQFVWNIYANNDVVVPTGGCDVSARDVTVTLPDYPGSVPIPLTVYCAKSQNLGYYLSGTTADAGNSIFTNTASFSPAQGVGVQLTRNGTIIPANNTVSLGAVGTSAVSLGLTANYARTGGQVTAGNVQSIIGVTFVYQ

Row | Binder | response (bacteria per field)
8 | B1 | 13

Same assay, conditions: chain shown with the change, without D-mannose, n = 3 biological replicates, parent: est. 66, read off a plot

Row | Binder | response (bacteria per field)
9 | B1 | 19
